B1: OR4K15 (parent)
chain: GUUAACGGUCAUAGGCCAUGGAAACUAGGAGCACCAUUUCGCUGCCAGUGAAGAAAUGAACAAAGAAAAUCUGGGCCAGGCAGGCAUCAAAAGAAAUAGUCUUGCGCUCAACCAGAAAGUCUGUAAUCAUUUUAAGGGUA

Variants of: B1
Assay: self-cleavage, relative activity (ratio to wild type); higher = more cleavage; in vitro, sequencing; the parent is a self-cleaving ribozyme

Row | Variant | self-cleavage
1 | C32U A52G | 1.73
2 | A33G U102A | 0.34
3 | A33G U102C | 1.44
4 | A33G A91U | 0.94
5 | A33U A59C | 2.23
6 | A33C A135G | 1.64
7 | A33U A94U | 2.41
8 | G31C A56G | 1.63
9 | C32U A89G | 0.89
10 | A30G A33U | 1.18
11 | A30G A36U | 1.32
12 | A30G A36G | 1.44
13 | A33G A96U | 1.14
14 | A33G A96C | 0.76
15 | A33C U39A | 2.06
16 | A33U A66G | 1.91
17 | A30G A110U | 1.1
18 | G31U | 1.7
19 | G31A | 1.52
20 | G31C | 1.79
21 | A30G U87A | 0.88
22 | G29A U130C | 1.7
23 | G31C A125G | 0.93
24 | A33G A67G | 1.06

Row | Variant | self-cleavage
25 | A33G G80A | 0.12
26 | G31A A54G | 1.21
27 | G31A A51G | 1.64
28 | A33G A118G | 0.49
29 | G29A U108C | 0.03
30 | A30U G119A | 2.38
31 | A30G U38G | 1.4
32 | A30G A111U | 0.05
33 | G31A A82U | 0.14
34 | A33C A96G | 2.84
35 | G29C U100C | 2.39
36 | A33U A95U | 2
37 | A33G U127A | 1.19
38 | A33G U127C | 0.23
39 | A30G U102A | 0.78
40 | A30G U102C | 1.21
41 | G29U A118G | 0.78
42 | A33G U70A | 0.5
43 | C32U A36U | 1.76
44 | G31A A90G | 1.8
45 | A30G A129G | 1.02
46 | A30G U70C | 0.75
47 | A30C U130C | 1.21
48 | A30G G104A | 0.08

Row | Variant | self-cleavage
49 | A30G A90U | 1.68
50 | A30G A59G | 1.5
51 | G31U U120C | 1.21
52 | A33C A116G | 0.76
53 | A30G G119A | 2.01
54 | G31U A68G | 1.26
55 | A30C A64U | 0.92
56 | C32U U103C | 0.91
57 | C32U A96G | 0.99
58 | A33G U97A | 1.18
59 | A30G C85U | 0.69
60 | C32A G73U | 0.21
61 | A30G A95G | 0.44
62 | C32U U139C | 1.64
63 | A30U A36G | 1.71
64 | G28U A89U | 2.26
65 | A33G A126U | 0.86
66 | A33G A126C | 0.86
67 | A30U A68G | 1.62
68 | A33C A64C | 1.61
69 | A30U A96G | 0.89
70 | G31U A90G | 1.32
71 | A33C A118C | 0.99
72 | G31A C32U | 1.42

Row | Variant | self-cleavage
73 | A30G A140G | 1.34
74 | A30U A66G | 1.68
75 | A30U A66U | 0.65
76 | A30U G73U | 0.17
77 | A33G A111U | 0.06
78 | G29A A47G | 0.87
79 | A33C A111G | 0.03
80 | G28U A30G | 1.48
81 | A33G A62G | 1.11
82 | A33G A62U | 0.76
83 | A33C A66G | 1.88
84 | G28U A69G | 1.57
85 | A33G A94G | 0.75
86 | A30U A90G | 1.31
87 | A33G A55G | 0.85
88 | A33G U108C | 0.02
89 | A33G U108A | 0.02
90 | A33G C42G | 1.02
91 | A33G A129U | 0.39
92 | A33G A129G | 0.35
93 | A30U A111G | 0.02
94 | A30G A63G | 1.57
95 | G31A A91U | 1.99
96 | A30U A82U | 0.23

Row | Variant | self-cleavage
97 | A33C A91G | 1.57
98 | A33G A63G | 0.45
99 | A33G A63U | 0.76
100 | A30G C40U | 0.89
101 | A30U A59U | 1.6
102 | C32U U124C | 1.15
103 | G31A A56G | 1.41
104 | C32U A64G | 1.66
105 | A30G G53C | 1.95
106 | A33G U43A | 1.32
107 | G29A | 1.82
108 | G29U | 1.83
109 | G29C | 1.78
110 | A33C U108C | 0.01
111 | A30G A69U | 1.18
112 | C32A U39C | 1.42
113 | A33G A66U | 0.35
114 | G29U A62G | 1.65
115 | A30G A134G | 0.98
116 | A33U A92G | 1.86
117 | A33G A140G | 1.26
118 | A33G A140U | 0.97
119 | A30U A92G | 0.91
120 | A33G A54C | 0.95

Row | Variant | self-cleavage
121 | A33G A54G | 1.06
122 | G29A A66G | 1.59
123 | A33G A36U | 1.33
124 | A33G A36G | 1.15
125 | G31C U108C | 0.03
126 | G31A U70A | 1.73
127 | A30G A118G | 1.2
128 | A30G A118U | 0.62
129 | A30C A140G | 1.69
130 | G31A U103C | 0.46
131 | A30G U124C | 0.74
132 | A30G U124A | 0.78
133 | A30U U130C | 0.34
134 | G31U U133C | 2.47
135 | A33G U100A | 0.28
136 | A30C A36G | 2.26
137 | C32U A118G | 1.44
138 | A30G A114U | 0.05
139 | A30G A114G | 0.23
140 | A33G U120C | 0.53
141 | C32U A54G | 1.37
142 | A30U U97C | 0.83
143 | G29A A96U | 1.27
144 | A33G G74U | 0.19

Row | Variant | self-cleavage
145 | A33G A78U | 0.14
146 | C32U A117U | 0.3
147 | G31A A52G | 2.05
148 | G31C A90G | 1.73
149 | A30G G31C | 2
150 | A33C A51U | 2.27
151 | A33C A51G | 1.64
152 | A30U A135U | 1.23
153 | A30G G74C | 0.34
154 | A30U U132C | 1.33
155 | A33G U37A | 1.02
156 | A33G U37C | 0.74
157 | A33C U87A | 1.18
158 | A30U A62G | 1.16
159 | A33G G83U | 0.24
160 | A33G A86G | 0.7
161 | A33G A51U | 0.82
162 | A33G A51G | 0.75
163 | A33G A51C | 0.52
164 | G29U A33G | 1.58
165 | C32A G79A | 0.17
166 | A33G A110G | 0.15
167 | A33C U57A | 1.1

From the RNAGym collection of RNA variant scans (doi:10.7554/elife.90254)
